Measured values as given in article PMC8754640 (Nucleic Acids Research, 2021).

B1: His-PABP 4EA mutant-Flag (natural protein, UniProt P11940 2-636, looked up)
chain: NPSAPSYPMASLYVGDLHPDVTEAMLYEKFSPAGPILSIRVCRDMITRRSLGYAYVNFQQPADAERALDTMNFDVIKGKPVRIMWSQRDPSLRKSGVGNIFIKNLDKSIDNKALYDTFSAFGNILSCKVVCDENGSKGYGFVHFETQEAAERAIEKMNGMLLNDRKVFVGRFKSRKARAAALGARAKAFTNVYIKNFGEDMDDERLKDLFGKFGPALSVKVMTDESGKSKGFGFVSFERHEDAQKAVDEMNGKELNGKQIYVGRAQKKVERQTELKRKFEQMKQDRITRYQGVNLYVKNLDDGIDDERLRKEFSPFGTITSAKVMMEGGRSKGFGFVCFSSPEEATKAVTEMNGRIVATKPLYVALAQRKEERQAHLTNQYMQRMASVRAVPNPVINPYQPAPPSGYFMAAIPQTQNRAAYYPPSQIAQLRPSPRWTAQGARPHPFQNMPGAIRPAAPRPPFSTMRPASSQVPRVMSTQRVANTSTQTMGPRPAAAAAAATPAVRTVPQYKYAAGVRNPQQHLNAQPQVTMQQPAVHVQGQEPLTASMLASAPPQEQKQMLGERLFPLIQAMHPTLAGKITGMLLEIDNSELLHMLESPESLRSKVDEAVAVLQAHQAKEAAQKAVNSATGVPTV
B2: Flag-1–2–3 (2–299) (domain or fragment, UniProt P11940 2-299, looked up)
chain: NPSAPSYPMASLYVGDLHPDVTEAMLYEKFSPAGPILSIRVCRDMITRRSLGYAYVNFQQPADAERALDTMNFDVIKGKPVRIMWSQRDPSLRKSGVGNIFIKNLDKSIDNKALYDTFSAFGNILSCKVVCDENGSKGYGFVHFETQEAAERAIEKMNGMLLNDRKVFVGRFKSRKEREAELGARAKEFTNVYIKNFGEDMDDERLKDLFGKFGPALSVKVMTDESGKSKGFGFVSFERHEDAQKAVDEMNGKELNGKQIYVGRAQKKVERQTELKRKFEQMKQDRITRYQGVNLYVK
B3: GST-RRM2-3 (residues 97–299) (domain or fragment, UniProt P11940 97-299, looked up)
chain: GVGNIFIKNLDKSIDNKALYDTFSAFGNILSCKVVCDENGSKGYGFVHFETQEAAERAIEKMNGMLLNDRKVFVGRFKSRKEREAELGARAKEFTNVYIKNFGEDMDDERLKDLFGKFGPALSVKVMTDESGKSKGFGFVSFERHEDAQKAVDEMNGKELNGKQIYVGRAQKKVERQTELKRKFEQMKQDRITRYQGVNLYVK
B4: Flag-2–3 (97–299) (domain or fragment, UniProt P11940 97-299, looked up)
chain: B3 chain
B5: Flag-linker2-RRM3 (176–299) (domain or fragment, UniProt P11940 176-299, looked up)
chain: RKEREAELGARAKEFTNVYIKNFGEDMDDERLKDLFGKFGPALSVKVMTDESGKSKGFGFVSFERHEDAQKAVDEMNGKELNGKQIYVGRAQKKVERQTELKRKFEQMKQDRITRYQGVNLYVK
B6: Flag-1–2–3–4 (2–371) (domain or fragment, UniProt P11940 2-371, looked up)
chain: NPSAPSYPMASLYVGDLHPDVTEAMLYEKFSPAGPILSIRVCRDMITRRSLGYAYVNFQQPADAERALDTMNFDVIKGKPVRIMWSQRDPSLRKSGVGNIFIKNLDKSIDNKALYDTFSAFGNILSCKVVCDENGSKGYGFVHFETQEAAERAIEKMNGMLLNDRKVFVGRFKSRKEREAELGARAKEFTNVYIKNFGEDMDDERLKDLFGKFGPALSVKVMTDESGKSKGFGFVSFERHEDAQKAVDEMNGKELNGKQIYVGRAQKKVERQTELKRKFEQMKQDRITRYQGVNLYVKNLDDGIDDERLRKEFSPFGTITSAKVMMEGGRSKGFGFVCFSSPEEATKAVTEMNGRIVATKPLYVALAQRK
B7: GST-CTD (residues 372–636) (domain or fragment, UniProt P11940 372-636, looked up)
chain: EERQAHLTNQYMQRMASVRAVPNPVINPYQPAPPSGYFMAAIPQTQNRAAYYPPSQIAQLRPSPRWTAQGARPHPFQNMPGAIRPAAPRPPFSTMRPASSQVPRVMSTQRVANTSTQTMGPRPAAAAAAATPAVRTVPQYKYAAGVRNPQQHLNAQPQVTMQQPAVHVQGQEPLTASMLASAPPQEQKQMLGERLFPLIQAMHPTLAGKITGMLLEIDNSELLHMLESPESLRSKVDEAVAVLQAHQAKEAAQKAVNSATGVPTV
B8: Flag-C (372–636) (domain or fragment, UniProt P11940 372-636, looked up)
chain: B7 chain
B9: Flag-Linker (372–543) (domain or fragment, UniProt P11940 372-543, looked up)
chain: EERQAHLTNQYMQRMASVRAVPNPVINPYQPAPPSGYFMAAIPQTQNRAAYYPPSQIAQLRPSPRWTAQGARPHPFQNMPGAIRPAAPRPPFSTMRPASSQVPRVMSTQRVANTSTQTMGPRPAAAAAAATPAVRTVPQYKYAAGVRNPQQHLNAQPQVTMQQPAVHVQGQE

Key:
SEC = target: the molecule itself; test: SEC
GST-PABP WT = GST-PABP WT (UniProt P11940 1-636); test: co-IP
Flag-1–2–3–4 (2–371) = target: B6; test: co-IP
Flag-2–3 (97–299) = target: B4; test: co-IP
[1] = target: B3; test: pull-down
[2] = target: B3; test: co-IP
His-PABP WT-Flag = His-PABP WT-Flag (UniProt P11940 2-636); test: co-IP
Flag-C (372–636) = target: B8; test: co-IP
[3] = target: B7; test: co-IP

B1
stoichiometry N (SEC): 2

B2
binding result (GST-PABP WT): binds

B3
binding result (Flag-1–2–3–4 (2–371)): binds | binding result (Flag-2–3 (97–299)): binds

B4
binding result [1]: binds | binding result (GST-PABP WT): binds

B5
binding result [2]: binds

B6
binding result (GST-PABP WT): binds

B7
binding result (His-PABP WT-Flag): binds | binding result (Flag-C (372–636)): binds

B8
binding result (GST-PABP WT): binds

B9
binding result [3]: binds
